Legend:
[1] = target: T1, human progesterone receptor (hPR) (Homo sapiens, UniProt P06401); assay: Coactivation of hPR on MMTV-LTR luciferase reporter in CV-1 cells; format: cell-based; settings: coexpressed RAC3, 100 nM progesterone
T1 construct: expressed in transfected cells; host or cells: CV-1 monkey kidney cells
Protocol: In this experiment, transfected cells were treated with or without 100 nM of progesterone at presence or absence of coexpressed RAC3 or SRC-1 in CV-1 cells.
Thus, RAC3 is a bona fide transcriptional coactivator for mammalian steroid/nuclear hormone receptors.

[2] = system: histone; assay: Histone acetyltransferase (HAT) activity; format: biochemical; settings: compared with the p/CAF; unpublished data
[3] = target: T2, TR (LBD) of hTRβ (Homo sapiens, UniProt P10828); assay: Yeast two-hybrid interaction with TR; format: binding; settings: β-galactosidase ONPG assay, 1 μM ligand or vehicle
T2 construct: TR (LBD) of hTRβ); expressed in transfected cells; host or cells: Saccharomyces cerevisiae Y190
T2 sequence (P10828 217-461 limits assumed): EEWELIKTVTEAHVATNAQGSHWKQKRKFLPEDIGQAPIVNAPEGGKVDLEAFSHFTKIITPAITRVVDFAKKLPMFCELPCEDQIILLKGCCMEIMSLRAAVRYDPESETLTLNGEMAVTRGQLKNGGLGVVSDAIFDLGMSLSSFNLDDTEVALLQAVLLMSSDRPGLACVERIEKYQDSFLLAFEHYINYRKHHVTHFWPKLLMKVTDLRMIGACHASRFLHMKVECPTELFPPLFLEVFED
T2 sequence (Q9Y6Q9 401-1204 E704Q partner limits assumed): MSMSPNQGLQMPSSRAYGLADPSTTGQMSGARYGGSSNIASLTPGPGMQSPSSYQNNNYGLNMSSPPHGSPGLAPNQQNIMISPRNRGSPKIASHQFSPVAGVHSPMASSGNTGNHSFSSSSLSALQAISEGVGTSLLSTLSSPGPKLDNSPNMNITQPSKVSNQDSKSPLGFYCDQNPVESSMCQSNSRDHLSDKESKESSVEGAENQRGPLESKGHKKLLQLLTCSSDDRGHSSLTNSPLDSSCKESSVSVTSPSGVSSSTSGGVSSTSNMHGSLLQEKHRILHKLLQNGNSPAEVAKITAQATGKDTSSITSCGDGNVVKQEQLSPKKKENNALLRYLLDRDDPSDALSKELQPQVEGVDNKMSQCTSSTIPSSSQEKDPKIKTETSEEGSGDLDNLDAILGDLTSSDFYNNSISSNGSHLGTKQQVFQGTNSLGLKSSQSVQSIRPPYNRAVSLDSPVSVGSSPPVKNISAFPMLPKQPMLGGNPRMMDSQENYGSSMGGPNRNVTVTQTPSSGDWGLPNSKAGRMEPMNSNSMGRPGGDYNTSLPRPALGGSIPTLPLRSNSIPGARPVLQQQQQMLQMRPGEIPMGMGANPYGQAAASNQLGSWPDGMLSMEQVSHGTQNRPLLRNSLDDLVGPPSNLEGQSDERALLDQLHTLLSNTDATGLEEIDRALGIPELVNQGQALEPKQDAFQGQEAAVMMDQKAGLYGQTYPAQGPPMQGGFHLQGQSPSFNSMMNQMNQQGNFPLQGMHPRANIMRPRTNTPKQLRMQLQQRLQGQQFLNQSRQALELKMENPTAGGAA
Protocol: The protein—protein interactions between RAC3 and several steroid/nuclear receptors were analyzed by the yeast two-hybrid system. The original two-hybrid clone, RAC3.1 in pGAD10 vector, was retransformed together with yeast expression vectors for Gal4 DBD fusion of selected hormone receptor genes into Y190 cells. The receptors used include RAR (full-length hRARα), RXR (full-length hRXRα), VDR (LBD of human Vitamin D receptor), PPAR (LBD of mPPARα), TR (LBD) of hTRβ), COUP (LBD of COUP-TFI). Three independent colonies from each transformation were selected and analyzed for expression of […] activities by liquid ONPG assay (FIG. 6) after treatment with 1 μM of corresponding ligands (closed bars), or with equal concentration of vehicle alone (open bars). […] The ligands used in these experiments were atRA, VitD3 (1,25-dihydroxyvitamin D3), and Wy (Wy 14,642). […] In the absence of ligand, RAC3 can interact with RAR and PPAR.

[4] = system: CBP; assay: Far-Western analysis of interaction with GST-CBP fusions; format: binding; settings: 35S-labeled full-length RAC3
Protocol: GST fusion proteins were overexpressed and purified from DH5α cells on glutathione agarose beads. The fusion proteins were separated on denaturing protein gels (SDS-PAGE) and electroblotted onto nitrocellulose filters in a transfer buffer (25 mM Tris-HCl, pH 8.3; 192 mM glycine; 0.01% SDS). After denaturation in 6 M guanidine hydrochloride (GnHCl), the proteins were renatured by stepwise dilution of GnHCl to 0.187 M in HB buffer (25 mM Hepes, pH 7.7; 25 mM NaCl; 5 mM MgC12; 1 mM DTT). The filters were then saturated with blocking buffer (5% non-fat milk, then 1% milk in HB buffer plus 0.05% NP40) at 4° C. overnight. In vitro translated 35S-labeled proteins were generated in reticulocyte lysate (Promega) and were diluted into a hybridization buffer (20 mM Hepes, pH 7.7; 75 mM KCl; 0.1 mM EDTA; 2.5 mM MgC12; 0.05% NP40; 1% milk; 1 mM DTT). […] The bound 35S-labeled proteins were detected by autoradiography.
Since SRC-1 can interact with the general transcriptional coactivator CBP and p300 (Yao, T. P., et al. (1996) Proc Natl Acad Sci USA 93, 10626–31.), it was determined whether RAC3 can also interact with CBP by far-Western analyses. Serial GST-CBP fusions covering the SRC-1 interacting domain were analyzed for interactions with ^35S-labeled full-length RAC3, SRC-1 and RAC3-AD (FIGS. 3A, B and C). […]

T1 sequence (P06401 whole entry): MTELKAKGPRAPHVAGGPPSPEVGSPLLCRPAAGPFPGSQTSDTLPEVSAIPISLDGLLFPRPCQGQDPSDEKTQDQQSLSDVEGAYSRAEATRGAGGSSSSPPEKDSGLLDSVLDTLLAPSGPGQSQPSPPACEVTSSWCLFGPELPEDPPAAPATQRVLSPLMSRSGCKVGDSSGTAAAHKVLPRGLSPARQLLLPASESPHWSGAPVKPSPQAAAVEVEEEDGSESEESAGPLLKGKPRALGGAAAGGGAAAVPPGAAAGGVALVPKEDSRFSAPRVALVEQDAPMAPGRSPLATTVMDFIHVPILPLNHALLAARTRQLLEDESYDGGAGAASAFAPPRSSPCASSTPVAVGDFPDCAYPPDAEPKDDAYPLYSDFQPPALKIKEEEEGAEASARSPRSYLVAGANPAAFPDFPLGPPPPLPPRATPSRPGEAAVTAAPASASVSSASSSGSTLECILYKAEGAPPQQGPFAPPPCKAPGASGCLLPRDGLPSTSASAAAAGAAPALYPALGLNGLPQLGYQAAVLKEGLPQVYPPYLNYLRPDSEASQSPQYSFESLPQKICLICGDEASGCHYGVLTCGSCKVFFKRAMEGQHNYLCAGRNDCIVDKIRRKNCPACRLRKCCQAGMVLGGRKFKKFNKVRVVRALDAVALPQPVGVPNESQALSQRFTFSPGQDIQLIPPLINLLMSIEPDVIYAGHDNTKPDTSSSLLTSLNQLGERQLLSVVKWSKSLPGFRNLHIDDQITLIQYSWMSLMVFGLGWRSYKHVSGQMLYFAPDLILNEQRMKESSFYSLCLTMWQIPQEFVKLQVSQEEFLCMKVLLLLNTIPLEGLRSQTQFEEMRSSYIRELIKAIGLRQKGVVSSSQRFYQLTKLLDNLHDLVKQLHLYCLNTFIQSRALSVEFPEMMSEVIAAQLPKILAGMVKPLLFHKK
T1 sequence (Q9Y6Q9 with tags, fused parts or gaps isoform Q9Y6Q9-5 D131E/G132A/T187P/E704Q/DEL1268-1272 partner): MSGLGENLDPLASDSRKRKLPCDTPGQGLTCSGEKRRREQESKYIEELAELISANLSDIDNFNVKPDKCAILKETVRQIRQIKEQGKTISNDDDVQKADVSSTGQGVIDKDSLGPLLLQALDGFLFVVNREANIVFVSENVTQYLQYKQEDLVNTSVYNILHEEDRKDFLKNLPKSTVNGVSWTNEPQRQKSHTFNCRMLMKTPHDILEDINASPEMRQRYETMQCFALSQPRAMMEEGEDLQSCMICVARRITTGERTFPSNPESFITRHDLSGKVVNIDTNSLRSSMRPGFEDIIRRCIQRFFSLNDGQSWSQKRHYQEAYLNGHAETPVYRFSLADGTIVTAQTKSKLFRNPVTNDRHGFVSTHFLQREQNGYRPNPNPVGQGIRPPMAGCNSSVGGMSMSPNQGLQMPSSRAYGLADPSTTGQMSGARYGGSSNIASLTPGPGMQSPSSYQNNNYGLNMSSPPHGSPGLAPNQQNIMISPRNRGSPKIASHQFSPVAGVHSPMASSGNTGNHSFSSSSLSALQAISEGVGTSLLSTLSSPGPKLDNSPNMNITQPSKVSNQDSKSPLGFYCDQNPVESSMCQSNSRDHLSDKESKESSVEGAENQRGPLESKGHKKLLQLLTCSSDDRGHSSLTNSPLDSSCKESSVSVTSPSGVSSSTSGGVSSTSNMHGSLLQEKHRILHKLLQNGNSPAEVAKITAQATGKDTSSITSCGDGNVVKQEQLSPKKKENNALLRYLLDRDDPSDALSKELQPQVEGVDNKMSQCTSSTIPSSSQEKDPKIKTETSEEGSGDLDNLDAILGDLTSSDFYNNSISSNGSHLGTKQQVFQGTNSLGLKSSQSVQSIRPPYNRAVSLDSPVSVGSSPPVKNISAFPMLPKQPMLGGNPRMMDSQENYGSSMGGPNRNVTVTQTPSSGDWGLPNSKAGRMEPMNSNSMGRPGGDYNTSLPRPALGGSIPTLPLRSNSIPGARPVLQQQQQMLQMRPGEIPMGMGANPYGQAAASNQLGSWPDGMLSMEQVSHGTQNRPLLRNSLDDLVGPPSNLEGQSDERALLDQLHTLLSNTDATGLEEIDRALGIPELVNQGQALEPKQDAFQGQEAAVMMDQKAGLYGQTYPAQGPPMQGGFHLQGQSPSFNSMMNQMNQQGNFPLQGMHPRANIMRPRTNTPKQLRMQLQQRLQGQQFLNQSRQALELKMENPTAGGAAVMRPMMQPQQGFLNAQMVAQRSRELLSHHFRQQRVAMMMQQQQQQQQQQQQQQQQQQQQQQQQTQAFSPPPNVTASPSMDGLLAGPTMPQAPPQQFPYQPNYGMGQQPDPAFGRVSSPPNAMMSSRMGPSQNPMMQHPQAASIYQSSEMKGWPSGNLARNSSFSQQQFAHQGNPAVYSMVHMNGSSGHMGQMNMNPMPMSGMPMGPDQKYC

- transcriptional activation by PR on the MMTV-LTR promoter [1]: enhanced transcriptional activation
- HAT activity [2]: very weakly
- interaction with TR [3]: ligand-dependent manner
Substance: RAC3: transcriptional coactivator of steroid/nuclear receptors, protein of about 1417 amino acids (SEQ ID NO:2); RAC3.1 is the two-hybrid clone, amino acids 401–1204
- interaction with CBP fragments C and D [4]: interacts strongly
